Results on 2 molecules are retold here after patent US20150166647A1 (VLST, published 2015).

For experiment [1], the target named is T1, human MCP-1/CCL2 (human, UniProt P13500 24-99).
T1 construct: also called Biotin-MCP1
The experiment is described as follows: MSD electrochemiluminescence assay; chemokine coated at 1 µg/mL, 18V4F at 3 µg/mL; background = BSA.

Another experiment concerns the target T2, MCP-3.
T2 construct: also called MCP-3/CCL7; CCL7
Described as above.

In another experiment the target is T3, human MPIF-1/CCL23 (human, UniProt P55773 46-120).
T3 sequence: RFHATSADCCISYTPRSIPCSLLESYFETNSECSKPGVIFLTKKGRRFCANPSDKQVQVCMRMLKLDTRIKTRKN
The description is as above.

In the next experiment the target is T4, HCC-4.
T4 construct: also called HCC-4/CCL16; CCL16
T4 chemokine: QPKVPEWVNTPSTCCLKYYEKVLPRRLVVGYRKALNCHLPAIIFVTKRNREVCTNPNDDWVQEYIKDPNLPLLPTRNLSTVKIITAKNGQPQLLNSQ
Described as above.

A further experiment deals with T5, human HCC-1/CCL14/CCL14a (human, UniProt Q16627 28-93).
T5 sequence: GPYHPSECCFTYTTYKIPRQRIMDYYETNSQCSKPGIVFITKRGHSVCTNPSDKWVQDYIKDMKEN
The description is as above.

The target in a further experiment is T6, human PARC/CCL18 (human, UniProt P55774 21-89).
T6 sequence: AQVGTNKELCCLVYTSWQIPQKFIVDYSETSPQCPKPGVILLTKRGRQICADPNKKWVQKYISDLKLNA
The experiment is described as above.

A further experiment has as its target T7, Eotaxin-2.
T7 construct: also called Eotaxin-2/CCL24; CCL24
T7 chemokine: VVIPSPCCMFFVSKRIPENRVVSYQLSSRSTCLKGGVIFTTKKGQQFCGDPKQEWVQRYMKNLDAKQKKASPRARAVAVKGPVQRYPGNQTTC
The experiment is described as above.

In the next experiment the target is T8, I-309.
T8 construct: also called I-309/CCL1; CCL1
T8 chemokine: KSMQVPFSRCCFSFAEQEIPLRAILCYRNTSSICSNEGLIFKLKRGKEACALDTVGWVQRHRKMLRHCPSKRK
The description is as above.

A further experiment concerns the target T9, MCP-4.
T9 construct: also called MCP-4/CCL13; CCL13
Described as above.

Another experiment addresses T10, MIP3-α.
T10 construct: also called LARC/MIP-3α/CCL20; CCL20
The experiment is described as above.

The target of the next experiment is T11, MDC.
T11 construct: also called MDC/CCL22; CCL22
T11 chemokine: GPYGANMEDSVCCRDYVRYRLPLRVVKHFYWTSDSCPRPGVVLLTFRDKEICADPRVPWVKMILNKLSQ
Described as above.

The target of the next experiment is T12, mouse RANTES/CCL5 (mouse, UniProt P30882 24-91).
T12 construct: also called muRANTES
The experiment is described as follows: MSD electrochemiluminescence, chemokine coated at 1 µg/mL.

The target in a further experiment is T13, mouse MIP-1α/CCL3 (mouse, UniProt P10855 24-92).
T13 construct: also called muMIP-1α
T13 sequence: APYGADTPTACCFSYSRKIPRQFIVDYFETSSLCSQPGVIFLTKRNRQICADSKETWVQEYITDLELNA
The experiment is described as above.

In another experiment the target is T14, mouse MIP-1β/CCL4 (mouse, UniProt P14097 24-92).
T14 construct: also called muMIP-1β
T14 sequence: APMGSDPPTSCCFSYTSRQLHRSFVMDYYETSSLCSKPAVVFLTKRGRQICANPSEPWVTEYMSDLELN
The description is as above.

Experiment [2] deals with T1, human MCP-1/CCL2. As to the kind of experiment: ELISA, hybridoma fusion-well supernatant on biotinylated chemokine on streptavidin plate; background approx. 0.150. In general terms: ELISA stands for enzyme-linked immunosorbent assay.
The target of the next experiment is T15, human RANTES/CCL5 (human, UniProt P13501 24-91).
T15 construct: also called Biotin-RANTES
T15 sequence: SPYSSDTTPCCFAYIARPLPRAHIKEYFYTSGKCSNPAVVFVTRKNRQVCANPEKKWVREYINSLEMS
The description is as above.

For another experiment, the target named is T16, human MIP-1β/CCL4 (human, UniProt Q8NHW4 24-92).
T16 construct: also called Biotin-MIP-1β
T16 chain: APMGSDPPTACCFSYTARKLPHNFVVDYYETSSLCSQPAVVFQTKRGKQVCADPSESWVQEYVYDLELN
The experiment is described as above.

For another experiment, the target named is T17, human MIP-1α/CCL3 (human, UniProt P10147 24-92).
T17 construct: also called Biotin-MIP-1α
T17 sequence: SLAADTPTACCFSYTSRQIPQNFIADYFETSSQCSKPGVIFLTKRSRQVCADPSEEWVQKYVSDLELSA
As to the kind of experiment: ELISA, hybridoma fusion-well supernatant on coated MIP-1α; background approx. 0.150.

T12 sequence (P30882 24-91 limits assumed): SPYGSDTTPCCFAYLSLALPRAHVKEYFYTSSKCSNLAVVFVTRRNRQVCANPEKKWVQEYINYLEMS
T1 sequence (P13500 24-99 limits assumed): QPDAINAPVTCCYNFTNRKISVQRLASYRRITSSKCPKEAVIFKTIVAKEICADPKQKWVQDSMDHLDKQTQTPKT
T9 sequence (chemokine, as listed by the source): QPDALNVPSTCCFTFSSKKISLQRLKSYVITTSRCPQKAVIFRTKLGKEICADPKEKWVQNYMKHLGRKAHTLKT
T2 sequence (chemokine, as listed by the source): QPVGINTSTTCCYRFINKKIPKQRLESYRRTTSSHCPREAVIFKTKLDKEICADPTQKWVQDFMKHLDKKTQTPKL
T10 sequence (chemokine, as listed by the source): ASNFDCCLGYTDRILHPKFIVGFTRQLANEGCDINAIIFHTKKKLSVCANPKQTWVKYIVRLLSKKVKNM

B1: monoclonal antibody 18V4F (antibody, V domains shown)
VH: QVQLKESGPGLVAPSQSLSITCTVSGFSLTGYGIHWVRQPPGKGLEWLGVIWPGGGTNYNSALMSRLSISKDNSKSQVFLKMNSLQTDDTAMYYCARGPLITTEVSMDYWGQGTSVTVSS
VL: QAVVTQESALTTSPGETVTLTCRSNTGAVTTSNYANWVQEKPDHLFTGLIGGTNNRAPGVPARFSGSLIGDKAALTITGAQTEDEAIYFCALWYSNHWVFGGGTKLTVLG
notes: also called MAb 18V4F
B1: the binding result with human MCP-1/CCL2 [1], with MCP-3, in the experiment with human MPIF-1/CCL23, in the experiment with HCC-4, in the experiment with human HCC-1/CCL14/CCL14a and in the experiment with human PARC/CCL18 was “no binding (tested: 3 µg/mL)” each time. Also, the binding result with Eotaxin-2, with I-309, with MCP-4, with MIP3-α, with MDC and in the experiment with mouse RANTES/CCL5 was “no binding (tested: 3 µg/mL)” each time. In addition, the binding result in the experiment with mouse MIP-1α/CCL3 and in the experiment with mouse MIP-1β/CCL4 was “no binding (tested: 3 µg/mL)” each time.

B2: monoclonal antibody 7D12A (antibody, V domains shown)
VH: EVHLQESGPSLVKPSQTLSLTCSVTGDSITNGYWNWIRKFPGNKLDYMGYISYDGNTYYNPSLKSRFSITRDTSKNQYYLQLNSVTTEDTATYYCSRGDYGTYVMDYWGQGTSVTVSS
VL: NIVLTQSPVSLAVSLGQRATISCRASESVDSHGNSFMHWYQQKPGQPPKLLIYLASNLESGVPARFTGGGSGSDFTLTIDPVEADDVGTYYCQQNNEDPYTFGGGTKLEIK
notes: also called MAb 7D12A
In the case of B2, the ELISA signal with human MCP-1/CCL2 [2] is 0.246; with human RANTES/CCL5 it was 0.178; with human MIP-1β/CCL4 it was 2.68; in the experiment with human MIP-1α/CCL3 it was 1.47. The binding result with mouse RANTES/CCL5, with mouse MIP-1α/CCL3 and with mouse MIP-1β/CCL4 was “no binding (tested: 3 µg/mL)” throughout.
